According to US20220242973A1 (Molecular Partners, published 2022):
Like-named read-outs stand apart in the source and are kept apart here.

T1: Recombinant human FAP (fibroblast activation protein) (human, UniProt Q12884 26-760)
T1 construct: Bought soluble recombinant protein; Chemically biotinylated for the HTRF screen; also called hFAP; biotinylated human FAP
T1 sequence (looked up): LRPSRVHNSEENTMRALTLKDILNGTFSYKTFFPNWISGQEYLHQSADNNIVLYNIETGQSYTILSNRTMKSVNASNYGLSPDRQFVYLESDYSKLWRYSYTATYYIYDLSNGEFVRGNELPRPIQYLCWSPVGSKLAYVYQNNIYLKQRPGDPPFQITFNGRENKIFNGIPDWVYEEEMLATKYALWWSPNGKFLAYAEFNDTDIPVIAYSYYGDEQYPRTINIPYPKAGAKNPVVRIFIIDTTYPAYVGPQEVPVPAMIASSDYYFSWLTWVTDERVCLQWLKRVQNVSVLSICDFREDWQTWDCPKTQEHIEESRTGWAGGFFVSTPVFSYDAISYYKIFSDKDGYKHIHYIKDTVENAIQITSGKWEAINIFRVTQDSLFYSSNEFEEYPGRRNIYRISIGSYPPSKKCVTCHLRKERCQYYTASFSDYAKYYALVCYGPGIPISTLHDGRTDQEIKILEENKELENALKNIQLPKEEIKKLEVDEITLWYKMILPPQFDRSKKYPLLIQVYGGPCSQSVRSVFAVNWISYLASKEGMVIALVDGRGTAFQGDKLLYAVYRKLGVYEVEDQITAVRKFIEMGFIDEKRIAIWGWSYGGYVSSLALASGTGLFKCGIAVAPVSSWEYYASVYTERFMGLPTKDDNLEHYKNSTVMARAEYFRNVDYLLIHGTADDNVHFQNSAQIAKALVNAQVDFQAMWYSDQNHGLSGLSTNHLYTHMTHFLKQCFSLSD

T2: Histidine-tagged cynomolgus FAP (cynomolgus monkey (Macaca fascicularis), UniProt Q12884 30-760 (human entry))
T2 construct: the tie between the two is by these matching words only; also called cFAP; cyno FAP
T2 sequence: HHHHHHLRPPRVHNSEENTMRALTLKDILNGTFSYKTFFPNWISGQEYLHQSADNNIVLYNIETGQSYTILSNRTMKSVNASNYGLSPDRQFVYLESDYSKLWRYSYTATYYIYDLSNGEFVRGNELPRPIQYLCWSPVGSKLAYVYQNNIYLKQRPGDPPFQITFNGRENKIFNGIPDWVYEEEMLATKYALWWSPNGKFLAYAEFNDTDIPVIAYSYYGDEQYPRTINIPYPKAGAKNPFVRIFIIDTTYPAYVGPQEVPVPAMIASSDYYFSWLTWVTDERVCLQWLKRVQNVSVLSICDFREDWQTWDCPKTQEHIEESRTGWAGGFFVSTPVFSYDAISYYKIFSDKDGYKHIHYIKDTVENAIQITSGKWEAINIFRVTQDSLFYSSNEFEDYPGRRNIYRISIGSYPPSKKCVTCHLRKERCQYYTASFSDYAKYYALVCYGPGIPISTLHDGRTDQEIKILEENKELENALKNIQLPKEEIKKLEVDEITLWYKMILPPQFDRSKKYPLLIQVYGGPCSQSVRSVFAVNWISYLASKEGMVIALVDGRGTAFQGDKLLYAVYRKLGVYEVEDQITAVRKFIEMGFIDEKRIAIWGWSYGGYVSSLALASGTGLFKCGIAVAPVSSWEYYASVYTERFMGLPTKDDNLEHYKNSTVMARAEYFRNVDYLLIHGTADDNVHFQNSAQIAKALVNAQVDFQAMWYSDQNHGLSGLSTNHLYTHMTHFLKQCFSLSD


Columns and labels:
[1] = molecular target: T1, Recombinant human FAP (fibroblast …); assay: SPR (ProteOn), human FAP immobilized on GLC chip
Description: (§1) Briefly, human FAP was diluted in 10 mM Na-acetate pH 5.3 buffer and covalently immobilized on a GLC chip (BioRad) to a level of around 2000 resonance units (RU). The interaction of ankyrin repeat protein and hFAP was then measured by injecting 200 μl running buffer (PBS, pH 7.4 containing 0.005% Tween 20®) containing serial dilutions of ankyrin repeat proteins covering a concentration range between 30 nM and 0.5 nM (on-rate measurement), followed by a running buffer flow for at least 25 minutes at a constant flow rate of 100 μl/min (off-rate measurement). The regeneration was performed using 15 μl of 10 mM Glycine pH 2 followed by 15 μl of 124 mM H₃PO₄. The signals (i.e. resonance unit (RU) values) of the interspots and a reference injection (i.e. injection of running buffer only) were subtracted from the RU traces obtained after injection of ankyrin repeat protein (double-referencing). Based on the SPR traces obtained from the on-rate and off-rate measurements, the on- and off-rate of the corresponding ankyrin repeat protein—FAP interaction was determined.
(§2) Dissociation constants (KD) were calculated from the estimated on- and off-rates using standard procedures known to the person skilled in the art. […] Table 4 provides the KD values on cFAP and hFAP of some of the selected ankyrin repeat proteins as examples.

[2] = molecular target: T2, Histidine-tagged cynomolgus FAP; assay: SPR (ProteOn), cynomolgus FAP immobilized on GLC chip
Description: as §1, with “cyno” for “human”, “pH5.3” for “pH 5.3”, “cFAP” for “hFAP”, “25” for “30”, “0.3” for “0.5”
as §2

[3] = molecular target: T1, Recombinant human FAP (fibroblast …); assay: SPR (ProteOn), human FAP immobilized on GLC chip; remark: listed apart in the source
Outline: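 Human FAP amine-coupled (pH 5.3 acetate) to about 2000 RU. Ankyrin repeat proteins injected at 0.5–30 nM in PBS pH 7.4 with 0.005% Tween 20 at 100 μl/min, then ≥25 min dissociation, with double referencing. KD calculated from the fitted on- and off-rates.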

Kd [1] [nM]	Kd [2] [nM]	Kd [3] [nM]	Binder
0.058	0.047	0.058	DARPin® protein #38 (designed binder) MRGSHHHHHHGSDLGKKLLEAARAGQDDEVRELLKAGADVNAKDEVGRTPLHLAAQIGHLEIVEVLLKAGADVNAKNRWGVTPLHVAAWVGHLEIVEVLLKAGADVNAKDQQGATPLHLAAIRGHLEIVEVLLKAGADVNAQDKSGKTPADLAADAGHEDIAEVLQKLN
0.177	0.071	0.177	DARPin® protein #34 (designed binder) MRGSHHHHHHGSDLGKKLLEAARAGQDDEVRELLKAGADVNAKDVLGWTPLHLAAFEGHLEIVEVLLKAGADVNAKDKKGWTPLQLAARTGHLEIVEVLLKAGADVNAKDHIGATPLHLAAWQGHPEIVEVLLKAGADVNAQDKSGKTPADLAADAGHEDIAEVLQKAA
0.118	0.101	0.118	DARPin® protein #36 (designed binder) MRGSHHHHHHGSDLGKKLLEAARAGQDDEVRILLAAGADVNAKDVLGWTPLHLAAFEGHLEIVEVLLKAGADVNAKDKKGWTPLQLAARTGHLEIVEVLLKAGADVNAKDHIGATPLHLAAWQGHPEIVEVLLKAGADVNAQDKSGKTPADLAADAGHEDIAEVLQKLN
0.21	0.15	0.21	DARPin® protein #35 (designed binder) MRGSHHHHHHGSDLGEKLLVAALYGQDDEVRELLKAGADVNAKDQWGLTPLHKAALQGHLEIVEVLLKAGADVNAKDERGHTPLHWAARFGHLEIVEVLLKAGADVNAQDQKGYTPADLAALWGHEDIAEVLQKAA
0.14	0.112	0.14	DARPin® protein #37 (designed binder) MRGSHHHHHHGSDLGEKLLVAALYGQDDEVRILLAAGADVNAKDQWGLTPLHKAALQGHLEIVEVLLKAGADVNAKDERGHTPLHWAARFGHLEIVEVLLKAGADVNAQDQKGYTPADLAALWGHEDIAEVLQKLN
0.22	0.155	0.22	DARPin® protein #39 (designed binder) MRGSHHHHHHGSDLGKKLLEAARAGQDDEVRELLKAGADVNAKDEWGKTPLHLAAIRGHLEIVEVLLKAGADVNAKDTHGITPLHLAAFVGHLEIVEVLLKAGADVNAKDYLGRTPLHIAAAKGHLEIVEVLLKAGADVNAQDKSGKTPADLAADAGHEDIVEVLQKLN
